Assay [1] has as its target Angiopoietin-like protein 4 (ANGPTL4), recombinant V5-his tagged secreted product (UniProt Q9BY76). The assay can be described thus: SPR (BiaCore) low resolution, mAb captured on goat anti-human surface, ANGPTL4 at 292 nM, 25 C.
Assay [2] shares this target. The assay can be described thus: SPR (BiaCore 2000) medium resolution, mAb captured on goat anti-human surface, ANGPTL4 6-198 nM (593 nM left out of the fit), 1:1 model with mass transport.

B1: anti-ANGPTL4 monoclonal antibody 1.10.2 (antibody, human IgG2, V domains shown)
VH: QVQLVQSGAEVKKPGASVKDSCKASGFTFTSYGISWVRQAPGQGLEWMGWISAYNGNKNYAQKLQGRVTMTTDTSTSTAYMELRSLRSDDTAVYYCARDDCSRASCSYYYGMDVWGQGTAVTVSS
VL: DIVMTQTPLSLAVTPGQPASISCKSSQSLLHSDRKTYLYWYLQKPGQPPQLLIYEVSNRFSGVPDRFSGSGSGTDFTLKISRVEAEDVGVYYCMQSIQLPWTFGQGTKVEIKR
On to B1, for which, in assay [1], the dissociation constant (Kd) (as a rule, the equilibrium constant for the complex coming apart) turned out to be 11 nM; the koff (as a rule, the rate constant with which the complex falls apart) turned out to be 0.00068 s⁻¹; the kon (in general, the second-order rate constant of association) stood at 63000 M⁻¹ s⁻¹.

B2: anti-ANGPTL4 monoclonal antibody 1.3.1 (antibody, part only; not given: light chain, human IgG2, V domains shown, part only)
VH: EVQLVESGGGLIQPGGSLRLSCAASGFTVSTNYMSWVRQAPGKGLDWVSIIYSDDNTYYADSVKGRFTISRDNSKNTLYLQMNSLRAEDSAVYYCAGTGTTDYYYGLDVWGLGTTVTVSSA
Regarding B2, in assay [1], the Kd was 15 nM, the koff came out at 0.00071 s⁻¹ and the on-rate (kon) stood at 49000 M⁻¹ s⁻¹.

B3: anti-ANGPTL4 monoclonal antibody 1.7.3 (antibody, human IgG2, V domains shown)
VH: QVQLVESGGGVVQPGRSLRLSCAASGFTFSSYGIHWIRQAPGKGLEWVAVIWYDGSHKYYADSVKGRFTISRDNSKNTLYLQMNSLRAEDTAVYYCARDGITMVRGVLYYFYGMDVWGQGTTVTVSS
VL: DIQMTQSPSSLSASVGDRVTITCRASQGISNYLAWYQQKPGKVPKLLIYAASTLQSGVPSRFSGSGSGTDFTLTISSLQPEDFATYYCQEFNSAPLTFGGGTKVEIKR
On to B3, for which, in assay [1], the Kd worked out at 16 nM, the koff stood at 0.0011 s⁻¹ and the on-rate (kon) worked out at 67000 M⁻¹ s⁻¹. Further, in assay [2], the Kd worked out at 7.9 nM, the koff came out at 0.000786 s⁻¹ and the on-rate (kon) stood at 99800 M⁻¹ s⁻¹.

The record behind these values is patent publication US20140302055A1.
